Data: PMC11143374, “Conformations of Bcs1L undergoing ATP hydrolysis suggest a concerted translocation mechanism for folded iron-sulfur protein substrate” (Nature Communications, 2024)
One block for each molecule: values may come before it.

How the values were obtained:
[1] = target: AAA domain of mBcs1L (ΔNmBcs1L, residues 151-420) (mouse) (UniProt Q9CZP5); test: native gel or EMSA; BN-PAGE of ΔNmBcs1L with AMP-PNP or ATPγS
[2] = target: T1, mouse Bcs1L (mBcs1L), wild type, hexahistidine-tagged (mouse, UniProt Q9CZP5 1-418); test: cell-based or functional assay
T1 sequence (looked up): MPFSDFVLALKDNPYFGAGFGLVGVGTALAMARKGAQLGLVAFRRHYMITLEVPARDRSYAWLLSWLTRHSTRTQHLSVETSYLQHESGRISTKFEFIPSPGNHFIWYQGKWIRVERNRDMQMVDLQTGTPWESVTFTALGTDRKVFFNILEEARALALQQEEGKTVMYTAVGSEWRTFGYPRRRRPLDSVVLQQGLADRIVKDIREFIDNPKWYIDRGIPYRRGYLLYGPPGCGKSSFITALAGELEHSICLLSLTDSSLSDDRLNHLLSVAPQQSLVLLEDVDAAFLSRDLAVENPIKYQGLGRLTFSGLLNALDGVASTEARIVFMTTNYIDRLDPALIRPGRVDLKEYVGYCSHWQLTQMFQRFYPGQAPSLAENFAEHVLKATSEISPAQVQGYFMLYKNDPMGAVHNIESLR

stoichiometry N [1]: 7
Molecule: AAA domain of mBcs1L (ΔNmBcs1L, residues 151-420) (from UniProt Q9CZP5 151-418) (domain or fragment)

ATPase activity of mBcs1L (malachite green, 37 °C, 15 min) at different ISP-ED:mBcs1L heptamer molar ratios; maximal stimulation at a ratio of 3-4, no further change at higher ratios [2]: ~50 % stimulation
B1: extrinsic domain of the Rieske iron-sulfur protein (ISP-ED), bovine (domain or fragment, UniProt P13272 146-274, looked up)
chain: VLAMSKIEIKLSDIPEGKNMAFKWRGKPLFVRHRTKKEIDQEAAVEVSQLRDPQHDLERVKKPEWVILIGVCTHLGCVPIANAGDFGGYYCPCHGSHYDASGRIRKGPAPLNLEVPSYEFTSDDMVIVG
